The target of assay [1] is T1, soluble human GPC3 (human, UniProt P51654 25-563, limits assumed).
T1 construct: also called glypican 3
The assay is described as follows: SPR (Biacore), single-arm antibody, soluble human GPC3. (In general: Surface plasmon resonance follows binding to a sensor surface in real time, without labels.)

Assay [2] has as its target T1, soluble human GPC3. The assay is described as above. This is another data set of the same source.

Substitutions are numbered along the chain they refer to. Read-outs that look alike come from different tables or passages of the source.

T1 sequence (P51654 other isoform, or with tags, fused parts or gaps limits assumed, form in doubt): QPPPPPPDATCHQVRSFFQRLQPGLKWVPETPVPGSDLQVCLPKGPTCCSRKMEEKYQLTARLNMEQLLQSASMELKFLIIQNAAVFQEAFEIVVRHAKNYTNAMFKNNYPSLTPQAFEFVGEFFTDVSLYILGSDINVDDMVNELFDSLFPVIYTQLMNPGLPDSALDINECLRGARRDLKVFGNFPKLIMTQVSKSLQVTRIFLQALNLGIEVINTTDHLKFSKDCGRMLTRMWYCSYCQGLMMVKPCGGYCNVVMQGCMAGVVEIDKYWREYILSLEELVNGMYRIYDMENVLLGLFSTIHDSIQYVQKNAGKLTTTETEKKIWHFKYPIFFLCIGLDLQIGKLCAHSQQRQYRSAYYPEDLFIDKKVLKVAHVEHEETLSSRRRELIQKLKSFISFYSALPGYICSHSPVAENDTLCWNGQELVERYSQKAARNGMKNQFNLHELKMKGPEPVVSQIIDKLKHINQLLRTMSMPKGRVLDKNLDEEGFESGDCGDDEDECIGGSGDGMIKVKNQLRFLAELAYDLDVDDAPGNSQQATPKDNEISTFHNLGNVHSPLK

B1: H0610-G1dh/none-Hi-Kn010G3/L0000-k0 (antibody, human IgG1, kappa)
heavy: not shown
chain: EPKSSDKTHTCPPCPAPELLGGPSVFLFPPKPKDTLMISRTPEVTCVVVDVSHEDPEVKFNWYVDGVEVHNAKTKPREEQYNSTYRVVSVLTVLHQDWLNGKEYKCKVSNKALPAPIEKTISKAKGQPREPQVCTLPPSRDELTKNQVSLWCLVKGFYPSDIAVEWESNGQPENNYKTTPPVLDSDGSFFLYSKLTVDKSRWQQGNVFSCSVMHEALHNRYTQKSLSLSP
light: DIVMTQSPLSLPVTPGEPASISCRSSQSLVHSNRNTYLHWYQQKPGQAPRLLIYKVSNRFSGVPDRFSGSGSGTDFTLKISRVEAEDVGVYYCGQGTQVPYTFGQGTKLEIKRTVAAPSVFIFPPSDEQLKSGTASVVCLLNNFYPREAKVQWKVDNALQSGNSQESVTEQDSKDSTYSLSSTLTLSKADYEKHKVYACEVTHQGLSSPVTKSFNRGEC
notes: single-arm antibody
What is called Kd is a measure of binding affinity in units of concentration. In assay [1], B1 had a Kd of 4.16 nM. This lies in the single-digit nanomolar range.

B2: H0610-G1dh/none-Hi-Kn010G3/L0069-k0 (antibody, human IgG1, kappa)
heavy: not shown
chain: B1 chain
light: B1 light with N35M
notes: single-arm antibody
In turn, B2 yielded a Kd in assay [2] of 5.32 nM.

B3: H0610-G1dh/none-Hi-Kn010G3/L0180-k0 (antibody, human IgG1, kappa)
heavy: not shown
chain: B1 chain
light: B1 light with V99N
notes: single-arm antibody
On to B3, for which binding in assay [2] was characterised by a dissociation constant (Kd) of 4.48 nM.

B4: GCH065-G1dh/none-Hi-Kn010G3/L0011-k0 (antibody, human IgG1, kappa)
heavy: not shown
chain: B1 chain
light: B1 light with S28P
notes: single-arm antibody
In turn, B4 came in with a dissociation constant (Kd) in assay [1] of 0.884 nM.

B5: H0610-G1dh/none-Hi-Kn010G3/L0126-k0 (antibody, human IgG1, kappa)
heavy: not shown
chain: B1 chain
light: B1 light with F60N
notes: single-arm antibody
Regarding B5, the affinity in assay [2], expressed as Kd, was 5.62 nM. This counts as single-digit nanomolar.

B6: H0610-G1dh/none-Hi-kn010G3/L0106-k0 (antibody, human IgG1, kappa)
heavy: not shown
chain: B1 chain
light: B1 light with N58H
notes: single-arm antibody
As for B6, in assay [2], the Kd amounted to 5.66 nM.

B7: GCH100-G1dh/none-Hi-Kn010G3/L0000-k0 (antibody, human IgG1, kappa)
heavy: not shown
chain: B1 chain
light: B1 light
notes: single-arm antibody
For B7, the Kd in assay [2] was found to be 5.39 nM.

B8: GCH094-G1dh/none-Hi-Kn010G3/L0011-k0 (antibody, human IgG1, kappa)
heavy: not shown
chain: B1 chain
light: B1 light with S28P
notes: single-arm antibody
In assay [1], B8 came in with a Kd of 4.54 nM.

B9: H0610-G1dh/none-Hi-Kn010G3/L0129-k0 (antibody, human IgG1, kappa)
heavy: not shown
chain: B1 chain
light: B1 light with F60R
notes: single-arm antibody
B9 gave a Kd in assay [2] of 5.28 nM.

B10: H0610-G1dh/none-Hi-Kn010G3/L0113-k0 (antibody, human IgG1, kappa)
heavy: not shown
chain: B1 chain
light: B1 light with N58T
notes: single-arm antibody
Molecule B10 returned a Kd in assay [2] of 4.82 nM. The Kd values of the last two molecules are within 1.5-fold of each other.

B11: GCH054-G1dh/none-Hi-Kn010G3/L0011-k0 (antibody, human IgG1, kappa)
heavy: not shown
chain: B1 chain
light: B1 light with S28P
notes: single-arm antibody
B11: the Kd in assay [2] and in assay [1] was 5.25 nM throughout.

B12: H0610-G1dh/none-Hi-Kn010G3/L0062-k0 (antibody, human IgG1, kappa)
heavy: not shown
chain: B1 chain
light: B1 light with N35D
notes: single-arm antibody
For the molecule B12, binding in assay [2] was characterised by a dissociation constant (Kd) of 5.28 nM.

B13: H0610-G1dh/none-Hi-Kn010G3/TR01L005-k0 (antibody, human IgG1, kappa)
heavy: not shown
chain: B1 chain
light: B1 light with Q42L, A48S, R50Q, L109V, K112E
notes: single-arm antibody
Turning to B13, binding in assay [2] was put at a Kd of 5.37 nM.

B14: H0610-G1dh/none-Hi-Kn010G3/L0147-k0 (antibody, human IgG1, kappa)
heavy: not shown
chain: B1 chain
light: B1 light with S61V
notes: single-arm antibody
In assay [2], B14 came in with a Kd of 4.38 nM.

B15: H0610-G1dh/none-Hi-kn010G3/L0137-k0 (antibody, human IgG1, kappa)
heavy: not shown
chain: B1 chain
light: B1 light with S61G
notes: single-arm antibody
As to B15, the dissociation constant (Kd) in assay [2] was 5.87 nM.

B16: GCH094-G1dh/none-Hi-Kn010G3/L0000-k0 (antibody, human IgG1, kappa)
heavy: not shown
chain: B1 chain
light: B1 light
notes: single-arm antibody
B16 returned a Kd in assay [2] of 5.89 nM. This Kd and that of the molecule before are within 1.5-fold of each other.

B17: H0610-G1dh/none-Hi-Kn010G3/TR01L003-k0 (antibody, human IgG1, kappa)
heavy: not shown
chain: B1 chain
light: B1 light with L109V, K112E
notes: single-arm antibody
Consider B17, for which binding in assay [2] was characterised by a dissociation constant (Kd) of 5.08 nM.

B18: H0610-G1dh/none-Hi-Kn010G3/L0139-k0 (antibody, human IgG1, kappa)
heavy: not shown
chain: B1 chain
light: B1 light with S61I
notes: single-arm antibody
Turning to B18, binding in assay [2] was characterised by a dissociation constant (Kd) of 4.78 nM. The Kd values of the last two molecules are within 1.5-fold of each other.

B19: H0610-G1dh/none-Hi-Kn010G3/L0232-k0 (antibody, human IgG1, kappa)
heavy: not shown
chain: B1 chain
light: B1 light with Q27E
notes: single-arm antibody
In turn, B19 showed a Kd in assay [2] of 5.38 nM.

B20: H0610-G1dh/none-Hi-Kn010G3/L0091-k0 (antibody, human IgG1, kappa)
heavy: not shown
chain: B1 chain
light: B1 light with H39N
notes: single-arm antibody
B20 showed a Kd in assay [2] of 5.43 nM.

B21: H0610-G1dh/none-Hi-Kn010G3/L0043-k0 (antibody, human IgG1, kappa)
heavy: not shown
chain: B1 chain
light: B1 light with S32N
notes: single-arm antibody
Molecule B21 yielded a Kd in assay [2] of 5.14 nM.

B22: H0610-G1dh/none-Hi-Kn010G3/L0123-k0 (antibody, human IgG1, kappa)
heavy: not shown
chain: B1 chain
light: B1 light with F60K
notes: single-arm antibody
The molecule B22 gave a Kd in assay [2] of 5.08 nM.

B23: H0610-G1dh/none-Hi-Kn010G3/L0144-k0 (antibody, human IgG1, kappa)
heavy: not shown
chain: B1 chain
light: B1 light with S61Q
notes: single-arm antibody
Regarding B23, in assay [2], the Kd turned out to be 4.84 nM.

B24: H0610-G1dh/none-Hi-Kn010G3/L0089-k0 (antibody, human IgG1, kappa)
heavy: not shown
chain: B1 chain
light: B1 light with H39L
notes: single-arm antibody
In turn, B24 registered a Kd in assay [2] of 5.24 nM.

B25: H0610-G1dh/none-Hi-Kn010G3/L0136-k0 (antibody, human IgG1, kappa)
heavy: not shown
chain: B1 chain
light: B1 light with S61F
notes: single-arm antibody
As to B25, in assay [2], binding was put at a Kd of 5.04 nM.

B26: H0610-G1dh/none-Hi-Kn010G3/L0138-k0 (antibody, human IgG1, kappa)
heavy: not shown
chain: B1 chain
light: B1 light with S61H
notes: single-arm antibody
B26: the Kd in assay [2] came out at 5.24 nM. This Kd and that of the molecule before are within 1.5-fold of each other.

B27: H0610-G1dh/none-Hi-Kn010G3/L0104-k0 (antibody, human IgG1, kappa)
heavy: not shown
chain: B1 chain
light: B1 light with N58F
notes: single-arm antibody
The molecule B27 had a Kd in assay [2] of 5.9 nM.

B28: H0610-G1dh/none-Hi-Kn010G3/L0132-k0 (antibody, human IgG1, kappa)
heavy: not shown
chain: B1 chain
light: B1 light with F60V
notes: single-arm antibody
As to B28, the dissociation constant (Kd) in assay [2] is 5.65 nM.

B29: H0610-G1dh/none-Hi-Kn010G3/L0063-k0 (antibody, human IgG1, kappa)
heavy: not shown
chain: B1 chain
light: B1 light with N35E
notes: single-arm antibody
With B29, in assay [2], the Kd was determined as 6.03 nM.

B30: H0610-G1dh/none-Hi-Kn010G3/L0187-k0 (antibody, human IgG1, kappa)
heavy: not shown
chain: B1 chain
light: B1 light with V99Y
notes: single-arm antibody
In turn, B30 registered a dissociation constant Kd in assay [2] of 4.92 nM.

B31: H0610-G1dh/none-Hi-Kn010G3/L0117-k0 (antibody, human IgG1, kappa)
heavy: not shown
chain: B1 chain
light: B1 light with F60A
notes: single-arm antibody
B31 yielded a Kd in assay [2] of 4.92 nM.

B32: H0610-G1dh/none-Hi-Kn010G3/L0109-k0 (antibody, human IgG1, kappa)
heavy: not shown
chain: B1 chain
light: B1 light with N58M
notes: single-arm antibody
In turn, B32 registered a Kd in assay [2] of 5.7 nM.

B33: H0610-G1dh/none-Hi-Kn010G3/L0046-k0 (antibody, human IgG1, kappa)
heavy: not shown
chain: B1 chain
light: B1 light with S32V
notes: single-arm antibody
The molecule B33 displayed a Kd in assay [2] of 5.45 nM. The Kd values of the last two molecules are within 1.5-fold of each other.

These data come from patent publication US20210388110A1 (published 2021).
